From paper PMC9922296, “Mechanistic insights into RNA surveillance by the canonical poly(A) polymerase Pla1 of the MTREC complex” (Nature Communications, 2023)
Substitutions are numbered along the chain they refer to. Names and notes keep the numbering of the source. Values joined by “and” are separate entries in the source; they are usually repeats but may differ in a detail not shown here. Identical values can stand only once. No end group written: not given here.

What was measured:
[1] = biological target: C-terminal RRM domain of Pla1 (Pla1RRM, residues 352-566), purified (S. pombe) (UniProt Q10295); assay: ITC; MicroCal PEAQ-ITC, 25 °C, 20 mM HEPES pH 7.5, 150 mM NaCl, 2 mM BME; 40-50 µM protein in the cell, 400-500 µM ligand in the syringe; one-binding site model
[2] = biological target: T1, Pla1FL (full-length Pla1, residues 1-566) (S. pombe, UniProt Q10295 1-566); assay: BLI; biotinylated Red1 288-345 or Iss1 30-76 immobilised on streptavidin biosensors, 2-fold serial dilution of Pla1FL as analyte; 25 °C; 20 mM HEPES pH 7.5, 150 mM NaCl, 2 mM BME, 0.01% Tween-20; global 1:1 fit; details: both partners purified
T1 construct: Pla1, canonical poly(A) polymerase, S. pombe, residues 1-566; the His6 tag is non-cleavable; source: E. coli BL21 (DE3) Rosetta2, purified (His-Trap, Resource Q, Superdex 200); not shown: His6, N-terminal, kept
T1 sequence (looked up): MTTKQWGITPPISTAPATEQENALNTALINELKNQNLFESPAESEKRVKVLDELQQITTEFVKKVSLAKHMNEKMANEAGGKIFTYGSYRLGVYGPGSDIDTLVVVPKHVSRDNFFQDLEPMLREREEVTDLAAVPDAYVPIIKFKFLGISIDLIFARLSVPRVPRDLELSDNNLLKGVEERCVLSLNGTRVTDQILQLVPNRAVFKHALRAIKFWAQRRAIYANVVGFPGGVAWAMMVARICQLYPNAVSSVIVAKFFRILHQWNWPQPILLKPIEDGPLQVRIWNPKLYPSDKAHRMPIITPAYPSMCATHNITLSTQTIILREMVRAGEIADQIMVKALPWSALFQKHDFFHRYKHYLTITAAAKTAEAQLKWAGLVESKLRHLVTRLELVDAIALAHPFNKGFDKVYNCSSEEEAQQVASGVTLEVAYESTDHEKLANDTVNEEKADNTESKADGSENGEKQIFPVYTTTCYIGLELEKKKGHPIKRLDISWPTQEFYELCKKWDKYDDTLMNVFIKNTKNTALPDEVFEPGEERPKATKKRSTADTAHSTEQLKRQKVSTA

[3] = biological target: T2, C-terminal RRM domain of Pla1 (Pla1RRM, residues 352-566), purified (S. pombe, UniProt Q10295 352-566); assay: ITC; MicroCal PEAQ-ITC, 25 °C, 20 mM HEPES pH 7.5, 150 mM NaCl, 2 mM BME; 40-50 µM protein in the cell, 400-500 µM ligand in the syringe; one-binding site model; details: both partners purified
T2 construct: canonical poly(A) polymerase Pla1, S. pombe, C-terminal RRM domain, residues 352-566; also called Pla1 CTD; source: E. coli BL21 (DE3) Rosetta2, purified (His-Trap, TEV cleavage, Resource Q, Superdex 200); not shown: His6, N-terminal, cleaved
T2 sequence (looked up): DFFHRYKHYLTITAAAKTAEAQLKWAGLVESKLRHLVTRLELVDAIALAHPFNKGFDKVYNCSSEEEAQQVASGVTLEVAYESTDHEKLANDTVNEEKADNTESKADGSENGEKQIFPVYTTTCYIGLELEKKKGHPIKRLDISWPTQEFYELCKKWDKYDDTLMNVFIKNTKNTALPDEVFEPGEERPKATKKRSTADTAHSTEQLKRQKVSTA

[4] = biological target: T3, Full-length Pla1 (Pla1FL, residues 1-566) with non-cleavable N-terminal His6, purified (S. pombe, UniProt Q10295 1-566); assay: BLI; Octet RED96e, 25 °C, 20 mM HEPES pH 7.5, 150 mM NaCl, 2 mM BME, 0.01% Tween-20; biotinylated Red1_(288-345) or Iss1_(30-76) on streptavidin biosensors, 2-fold serial dilution of Pla1FL; global 1:1 fit; apparent; details: both partners purified
T3 construct: canonical poly(A) polymerase Pla1, S. pombe, full length, residues 1-566; source: E. coli BL21 (DE3) Rosetta2, purified (His-Trap, Resource Q, Superdex 200); not shown: His6, N-terminal, kept
T3 sequence (looked up): T1 sequence (looked up)

[5] = biological target: T4, Pla1RRM (C-terminal RRM domain of Pla1, residues 352-566) (S. pombe, UniProt Q10295 352-566); assay: ITC; Red1 or Iss1 construct in the syringe (400-500 µM) titrated into Pla1RRM (wild type or mutant) in the cell (40-50 µM); 25 °C; 20 mM HEPES pH 7.5, 150 mM NaCl, 2 mM BME; one-binding site model; each independent measurement listed; details: both partners purified
T4 construct: Pla1, canonical poly(A) polymerase, S. pombe, C-terminal RRM domain, residues 352-566; also called Pla1 RRM domain; Pla1 CTD; source: E. coli BL21 (DE3) Rosetta2, purified (His-Trap, TEV cleavage, Resource Q, Superdex 200); not shown: His6, N-terminal, cleaved
T4 sequence (looked up): T2 sequence (looked up)

[6] = biological target: T4, Pla1RRM (C-terminal RRM domain of Pla1, …); assay: as above; details: both partners purified; remark: listed apart in the source
[7] = biological target: Biotinylated Iss1 residues 30-76 (S. pombe); assay: BLI; Octet RED96e, 25 °C, 20 mM HEPES pH 7.5, 150 mM NaCl, 2 mM BME, 0.01% Tween-20; biotinylated Red1_(288-345) or Iss1_(30-76) on streptavidin biosensors, 2-fold serial dilution of Pla1FL; global 1:1 fit; apparent
[8] = biological target: T5, Red1 residues 288-345 with Val313 mutated to arginine (S. pombe, UniProt Q9UTR8 288-345, Val313 to an arginine residue); assay: ITC
T5 sequence: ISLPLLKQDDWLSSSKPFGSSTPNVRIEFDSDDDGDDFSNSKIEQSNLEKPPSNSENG

In the case of “Iss1 residues 30-76, purified (domain or fragment)”, the Kd [1] is reported as 2500 nM.

B1: biotinylated Iss1 30-76 (domain or fragment, S. pombe)
chain: VSNAKSPEQASEESDDSDIEFIIETKPGERAEPLGGSIATLGSTRPS
modifications: also: biotin (EZ-Link NHS-PEG4-Biotin), sites not given here
notes: Iss1, S. pombe, residues 30-76; same protein as Dm12, biotinylated for immobilisation on streptavidin biosensors; also called Iss1_(30-76), biotin-labelled; source: E. coli BL21 (DE3) Rosetta2, purified, biotinylated with EZ-Link NHS-PEG4-Biotin; not shown: His-Thioredoxin, N-terminal, cleaved
In the case of B1, the koff [2] is reported as 0.0242 s⁻¹.

B2: Red1 residues 288-345 with Val313 mutated to arginine (domain or fragment, S. pombe, UniProt Q9UTR8 288-345, looked up)
chain: T5 sequence
notes: also called V313R; source: E. coli BL21 (DE3), purified; not shown: GB1, N-terminal, cleaved; His6, C-terminal, kept
B2 was tested, and the “fold loss in affinity against wild-type Red1_(288-345)” value [3] was about 13 fold.

B3: Biotinylated Red1 residues 288-345 (domain or fragment, S. pombe, UniProt Q9UTR8 288-345, looked up)
chain: T5 sequence with R26V
modifications: also: biotin (EZ-Link NHS-PEG4-Biotin), site not given here
notes: source: E. coli BL21 (DE3), purified, biotinylated; not shown: GB1, N-terminal, cleaved; His6, C-terminal, kept
Work on B3 yielded a Kd [4] of 59.2 nM, a koff [4] of 0.016 s⁻¹ and a kon [4] of 280000 M⁻¹ s⁻¹.

B4: biotinylated Red1 288-345 (domain or fragment, S. pombe)
chain: T5 sequence with R26V
modifications: also: biotin (EZ-Link NHS-PEG4-Biotin), sites not given here
notes: same protein as Dm2, biotinylated for immobilisation on streptavidin biosensors; source: E. coli BL21 (DE3), purified, biotinylated with EZ-Link NHS-PEG4-Biotin; not shown: GB1, N-terminal, cleaved; His6, C-terminal, kept
In the case of B4, the koff [2] is reported as 0.0163 s⁻¹ and the kon [2] is reported as 275000 M⁻¹ s⁻¹.

B5: Red1 288-345 N311A (domain or fragment, S. pombe, UniProt Q9UTR8 288-345, looked up)
chain: T5 sequence with N24A, R26V
notes: also called Red1N311A; source: E. coli BL21 (DE3), purified (His-Trap, TEV cleavage, second IMAC, Superdex 75); not shown: GB1, N-terminal, cleaved; His6, C-terminal, kept
In the case of B5, the Kd [5] is reported as 1100 ± 250 nM, the Kd [6] is reported as 770 nM and 1530 nM and the “stoichiometry N” value [6] is reported as 0.99 and 1.05.

B6: Red1 288-345 V313R (domain or fragment, S. pombe, UniProt Q9UTR8 288-345, looked up)
chain: T5 sequence
notes: source: E. coli BL21 (DE3), purified (His-Trap, TEV cleavage, second IMAC, Superdex 75); not shown: GB1, N-terminal, cleaved; His6, C-terminal, kept
In the case of B6, the Kd [6] is reported as 15800 nM and 19900 nM and the “stoichiometry N” value [6] is reported as 1.13 and 0.96.

B7: Red1 288-345 S308A (domain or fragment, S. pombe, UniProt Q9UTR8 288-345, looked up)
chain: T5 sequence with S21A, R26V
notes: also called Red1S308A; source: E. coli BL21 (DE3), purified (His-Trap, TEV cleavage, second IMAC, Superdex 75); not shown: GB1, N-terminal, cleaved; His6, C-terminal, kept
In the case of B7, the Kd [5] is reported as 1200 ± 300 nM, the Kd [6] is reported as 1010 nM and 1450 nM and the “stoichiometry N” value [6] is reported as 1.04 and 1.05.

B8: Full-length Pla1 (Pla1FL, residues 1-566) with non-cleavable N-terminal His6, purified (enzyme)
chain: T1 sequence (looked up)
B8 gave a Kd [7] of 115 nM, a koff [7] of 0.024 s⁻¹ and a kon [7] of 210000 M⁻¹ s⁻¹.

B9: Red1 288-322 (domain or fragment, S. pombe)
chain: ISLPLLKQDDWLSSSKPFGSSTPNVVIEFDSDDDG
notes: as for B6
In the case of B9, the Kd [6] is reported as 7300 nM and 8400 nM and the “stoichiometry N” value [6] is reported as 1.31 and 1.3.

B10: Red1 residues 288-322, purified (domain or fragment, S. pombe, UniProt Q9UTR8 288-322, looked up)
chain: B9 chain
notes: as for B6
B10 gave a Kd [3] of 7900 nM.

B11: C-terminal RRM domain of Pla1 (Pla1RRM, residues 352-566), purified (domain or fragment)
chain: T2 sequence (looked up)
B11 gave a Kd [8] of 17900 nM.
